# Publication PMC6954424
# Target: mouse IgG (on magnet beads) (mouse)
# Experiment: pull-down; DNA-barcoded HaloTag protein G (93 nM by qPCR) mixed with mouse IgG magnet beads in PBS-NP40, 4°C, 2 h; three washes; bound barcode quantified by qPCR
substance,measurement,value
DNA-barcoded HaloTag protein G (from UniProt P06654 34-417) (natural protein),fold signal (qPCR of the barcode) over the negative control barcoded GST with IgG,1000 fold
